Measurements taken from publication PMC6379965, “Expression and activity of the calcitonin receptor family in a sample of primary human high-grade gliomas” (BMC Cancer, 2019).
Read-outs that look alike come from different tables or passages of the source. Each block holds one molecule with its values, some of them ahead of it. Ends that are not written are not given here.

Key:
CTR in SB2b cell line = biological target: T1, CTR in SB2b cell line (Homo sapiens, UniProt P30988); assay: cAMP accumulation, CTR agonists, SB2b; type: cell-based; conditions: read-out: Emax, cAMP accumulation
T1 construct: only one of the studied cell lines expressed functional CTR; endogenous in cells; host or cells: SB2b patient-derived high-grade glioma cell line
T1 sequence (P30988 25-474): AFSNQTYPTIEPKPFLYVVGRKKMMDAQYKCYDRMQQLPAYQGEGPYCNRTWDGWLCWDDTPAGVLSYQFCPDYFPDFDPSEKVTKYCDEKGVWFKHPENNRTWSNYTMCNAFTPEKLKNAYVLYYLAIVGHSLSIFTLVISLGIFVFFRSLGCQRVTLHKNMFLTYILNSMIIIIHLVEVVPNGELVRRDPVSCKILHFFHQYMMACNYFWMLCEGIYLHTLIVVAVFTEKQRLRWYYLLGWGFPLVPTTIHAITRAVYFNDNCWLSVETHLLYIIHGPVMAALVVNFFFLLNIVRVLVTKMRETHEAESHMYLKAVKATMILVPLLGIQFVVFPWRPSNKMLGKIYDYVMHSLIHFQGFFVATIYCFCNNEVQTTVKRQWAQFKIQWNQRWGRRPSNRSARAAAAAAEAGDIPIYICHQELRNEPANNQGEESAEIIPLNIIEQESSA
Protocol: (§1) Primary patient high-grade glioma (HGG) cell lines, in vitro surrogates of glioblastoma, were developed by QIMR-Berghofer Medical Research Institute (Brisbane, Australia) and represent 3 distinct GBM subtypes: SB2b and PB1 (classical), JK2 (proneural) and WK1(mesenchymal), who supplied these directly for this study. GBM cell lines were cultured as adherent monolayers on matrigel (BD Biosciences)-coated flasks using StemPro NSC SFM serum free cell culture medium (Thermo Fisher Scientific) supplemented with 20 ng/ml EGF and 20 ng/ml FGFb, 1% D-glutamine and 1% of penicillin/ streptomycin (further referred as StemPro complete medium).
GBM cell lines were seeded at 38000 cells/well (SB2b) or 35,000 cells/well (PB1, JK2 and WK1) in 96-well matrigel-coated plates and incubated for 24 h at 37°C, 5% CO2 in humidified incubator in StemPro complete medium. Media was replaced with stimulation buffer (phenol red free F12 media, 0.1% BSA, 0.5 mM IBMX, pH 7.4). […] Cells were lysed (0.3% Tween 20, 5 mM Hepes, 0.1% BSA, pH 7.4) and 5 μl of cell lysate from each well was transferred to a corresponding well of 384-well optiplate. […] Data were analysed by three-parameter logistic curve and are presented as percentage of 10^− 5 M forskolin response.

JK2 cell line = assay: cAMP accumulation, CTR agonists, JK2; type: cell-based, human; conditions: 1 μM antagonist
Protocol: as §1, with “medium). Cells were cultured in 5% CO2 / 95% humidified air at 37 °C.” for “medium).”
(§2) GBM cell lines were seeded at 38000 cells/well (SB2b) or 35,000 cells/well (PB1, JK2 and WK1) in 96-well matrigel-coated plates and incubated for 24 h at 37°C, 5% CO2 in humidified incubator in StemPro complete medium. Media was replaced with stimulation buffer (phenol red free F12 media, 0.1% BSA, 0.5 mM IBMX, pH 7.4). […] Cells were lysed (0.3% Tween 20, 5 mM Hepes, 0.1% BSA, pH 7.4) and 5 μl of cell lysate from each well was transferred to a corresponding well of 384-well optiplate. Intracellular cAMP levels in the wells were determined using Lance Ultra cAMP assay kit (Perkin Elmer) according to the manufacturer’s instructions and detected using an Envision multilabel 2103 reader. Raw RFU values were converted using a cAMP standard curve to give absolute cAMP concentrations. Data were analysed by three-parameter logistic curve and are presented as percentage of 10^− 5 M forskolin response.

PB1 cell line [1] = assay: cAMP accumulation, CTR agonists, PB1; type: cell-based, human; conditions: 1 μM antagonist
Protocol: as §1, with “medium). Cells were cultured in 5% CO2 / 95% humidified air at 37 °C.” for “medium).”
as §2

[2] = biological target: CGRP (CLR/RAMP1) receptor (human (endogenous in PB1, JK2 and WK1)) (UniProt Q16602)
CGRP (CLR/RAMP1) receptor (human (endogenous in PB1, JK2 and WK1)), sequence (Q16602 23-461, chain 1 of 2): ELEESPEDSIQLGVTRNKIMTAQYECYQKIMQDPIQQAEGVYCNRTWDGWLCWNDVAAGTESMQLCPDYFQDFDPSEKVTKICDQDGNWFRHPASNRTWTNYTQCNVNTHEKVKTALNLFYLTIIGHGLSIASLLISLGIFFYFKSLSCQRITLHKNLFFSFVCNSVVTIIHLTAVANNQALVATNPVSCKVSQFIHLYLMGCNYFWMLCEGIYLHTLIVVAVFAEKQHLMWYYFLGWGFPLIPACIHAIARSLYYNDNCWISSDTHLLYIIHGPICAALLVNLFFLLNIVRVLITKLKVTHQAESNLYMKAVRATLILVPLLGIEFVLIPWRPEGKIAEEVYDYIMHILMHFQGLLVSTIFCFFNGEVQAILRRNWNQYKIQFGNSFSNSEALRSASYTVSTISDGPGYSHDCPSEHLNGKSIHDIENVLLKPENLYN
CGRP (CLR/RAMP1) receptor (human (endogenous in PB1, JK2 and WK1)), sequence (O60894 27-148, chain 2 of 2, further chain): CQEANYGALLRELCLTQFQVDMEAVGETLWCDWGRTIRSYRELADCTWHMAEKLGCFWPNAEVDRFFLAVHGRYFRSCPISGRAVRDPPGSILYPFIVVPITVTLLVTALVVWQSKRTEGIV

SB2b cell line = assay: Ca2+ mobilization, SB2b; type: cell-based, human; conditions: Fluo4-AM, FlexStation, 37 °C, pH 7.4, peak RFU, ATP 10 μM, ionomycin 1 μM, representative experiment, 3 replicates
Protocol: (§3) Primary patient high-grade glioma (HGG) cell lines, in vitro surrogates of glioblastoma, were developed by QIMR-Berghofer Medical Research Institute (Brisbane, Australia) and represent 3 distinct GBM subtypes: SB2b and PB1 (classical), JK2 (proneural) and WK1(mesenchymal) [37], who supplied these directly for this study. GBM cell lines were cultured as adherent monolayers on matrigel (BD Biosciences)-coated flasks using StemPro NSC SFM serum free cell culture medium (Thermo Fisher Scientific) supplemented with 20 ng/ml EGF and 20 ng/ml FGFb, 1% D-glutamine and 1% of penicillin/ streptomycin (further referred as StemPro complete medium).
(§4) GBM cell lines were seeded at 38000 cells/well (SB2b) or 35,000 cells/well (PB1 and WK1) in 96-well matrigel-coated plates and incubated for 24 h at 37 °C, 5% CO2 in humidified incubator in StemPro complete medium. […] Cells were incubated at 37°C for 60 min before ligand addition and detection of Ca^2+ mobilisation in a FlexStation 3 (Molecular Devices).

WK1 cell line [3] = assay: Ca2+ mobilization, WK1; type: cell-based, human; conditions: Fluo4-AM, FlexStation, 37 °C, pH 7.4, peak RFU, ATP 10 μM, ionomycin 1 μM, representative experiment, 3 replicates
Protocol: as §3, §4

PB1 cell line [4] = assay: Ca2+ mobilization, PB1; type: cell-based, human; conditions: Fluo4-AM, FlexStation, 37 °C, pH 7.4, peak RFU, ATP 10 μM, ionomycin 1 μM, representative experiment, 3 replicates
Protocol: as §3, §4

WK1 cell line [5] = assay: cAMP accumulation, CTR agonists, WK1; type: cell-based, human; conditions: 1 μM forskolin
Protocol: as §1, with “medium). Cells were cultured in 5% CO2 / 95% humidified air at 37 °C.” for “medium).”
GBM cell lines were seeded at 38000 cells/well (SB2b) or 35,000 cells/well (PB1, JK2 and WK1) in 96-well matrigel-coated plates and incubated for 24 h at 37°C, 5% CO2 in humidified incubator in StemPro complete medium. Media was replaced with stimulation buffer (phenol red free F12 media, 0.1% BSA, 0.5 mM IBMX, pH 7.4). […] Intracellular cAMP levels in the wells were determined using Lance Ultra cAMP assay kit (Perkin Elmer) according to the manufacturer’s instructions and detected using an Envision multilabel 2103 reader. […] Data were analysed by three-parameter logistic curve and are presented as percentage of 10^− 5 M forskolin response.

[6] = biological target: calcitonin receptor (human (endogenous in SB2b)) (UniProt P30988)
[7] = biological target: CGRP (CLR/RAMP1) receptor (human (endogenous in PB1, JK2 and WK1)) (UniProt Q16602); remark: listed apart in the source

Molecule: CC(C)C[C@H](NC(=O)[C@H](CCCCN)NC(=O)CNC(=O)[C@H](CC(C)C)NC(=O)[C@@H](NC(=O)[C@@H]1CSSC[C@H](N)C(=O)N[C@@H](CO)C(=O)N[C@@H](CC(N)=O)C(=O)N[C@@H](CC(C)C)C(=O)N[C@@H](CO)C(=O)N[C@@H]([C@@H](C)O)C(=O)N1)C(C)C)C(=O)N[C@@H](CO)C(=O)N[C@@H](CCC(N)=O)C(=O)N[C@@H](CCC(=O)O)C(=O)N[C@@H](CC(C)C)C(=O)N[C@@H](Cc1c[nH]cn1)C(=O)N[C@@H](CCCCN)C(=O)N[C@@H](CC(C)C)C(=O)N[C@@H](CCC(N)=O)C(=O)N[C@H](C(=O)N[C@@H](Cc1ccc(O)cc1)C(=O)N1CCC[C@H]1C(=O)N[C@@H](CCCNC(=N)N)C(=O)N[C@H](C(=O)N[C@@H](CC(N)=O)C(=O)N[C@H](C(=O)NCC(=O)N[C@@H](CO)C(=O)NCC(=O)N[C@H](C(=O)N1CCC[C@H]1C(N)=O)[C@@H](C)O)[C@@H](C)O)[C@@H](C)O)[C@@H](C)O [sCT, Salmon CT]
Emax (CTR in SB2b cell line): 35%

Molecule: αCGRP(8–37): CGRP receptor antagonist (VTHRLAGLLSRSGGVVKNNFVPTNVGSKAF; ends and bridges not checked; UniProt P06881 90-119, looked up, fragment)
effect of antagonist on amylin cAMP response (JK2 cell line): abolishing this response
effect of antagonist on amylin cAMP response (PB1 cell line [1]): abolishing this response

shift of the cAMP potency of αCGRP by 1 μM αCGRP(8–37) in PB1, JK2 and WK1 cells; blocks m4 + m8 [2]: 100 fold
Molecule: αCGRP(8–37) (peptide)

Molecule: Nc1ncnc2c1ncn2[C@@H]1O[C@H](COP(=O)(O)OP(=O)(O)OP(=O)(O)O)[C@@H](O)[C@H]1O [ATP]
intracellular Ca2+ mobilisation response (SB2b cell line): robust response
intracellular Ca2+ mobilisation response (WK1 cell line [3]): robust response
intracellular Ca2+ mobilisation response (PB1 cell line [4]): robust response

Molecule: C=C[C@@]1(C)CC(=O)[C@]2(O)[C@@]3(C)[C@@H](O)CCC(C)(C)[C@@H]3[C@H](O)[C@H](OC(C)=O)[C@@]2(C)O1 [forskolin]
increase of basal cAMP (WK1 cell line [5]): 4 fold

Molecule: CC[C@H](C)[C@H](NC(=O)[C@H](C)NC(=O)[C@@H](NC(=O)[C@H](CCC(N)=O)NC(=O)[C@@H]1CCCN1C(=O)[C@H](Cc1ccccc1)NC(=O)[C@@H](NC(=O)[C@H](Cc1c[nH]cn1)NC(=O)[C@H](Cc1ccccc1)NC(=O)[C@H](CCCCN)NC(=O)[C@H](CC(N)=O)NC(=O)[C@H](Cc1ccccc1)NC(=O)[C@H](CC(=O)O)NC(=O)[C@H](CCC(N)=O)NC(=O)[C@@H](NC(=O)[C@H](Cc1ccc(O)cc1)NC(=O)[C@@H](NC(=O)CNC(=O)[C@H](CC(C)C)NC(=O)[C@H](CCSC)NC(=O)[C@@H]1CSSC[C@H](N)C(=O)NCC(=O)N[C@@H](CC(N)=O)C(=O)N[C@@H](CC(C)C)C(=O)N[C@@H](CO)C(=O)N[C@@H]([C@@H](C)O)C(=O)N1)[C@@H](C)O)[C@@H](C)O)[C@@H](C)O)[C@@H](C)O)C(=O)NCC(=O)N[C@H](C(=O)NCC(=O)N[C@@H](C)C(=O)N1CCC[C@H]1C(N)=O)C(C)C [hCT, Human CT]
Emax (CTR in SB2b cell line): 43%

Emax of cAMP accumulation in SB2b cells (% of forskolin) [6]: 35
pEC50 of cAMP accumulation (30 min) in SB2b cells [6]: 9.4 pEC50
Molecule: salmon calcitonin (peptide)

Molecule: C[C@H](CCC(=O)O)C[C@H](C)C[C@H](C)C(=O)/C=C(\O)[C@H](C)C[C@H](C)C/C=C/[C@@H](C)[C@@H](O)[C@@H](C)[C@@H](O)C[C@@H]1CC[C@@](C)([C@H]2CC[C@@](C)([C@@H](C)O)O2)O1 [ionomycin]
intracellular Ca2+ mobilisation response (SB2b cell line): robust response
intracellular Ca2+ mobilisation response (WK1 cell line [3]): robust response
intracellular Ca2+ mobilisation response (PB1 cell line [4]): robust response

Emax of cAMP accumulation in SB2b cells (% of forskolin) [6]: 43
Molecule: human calcitonin (from UniProt P01258 85-116) (peptide)

pEC50 of cAMP accumulation (30 min) in JK2 cells [2]: 7 pEC50
pEC50 of cAMP accumulation (30 min) in PB1 cells [2]: 7.3 pEC50
pEC50 of cAMP accumulation (30 min) in WK1 cells [2]: 6.8 pEC50
pEC50 of cAMP accumulation to AM alone, antagonist experiment, JK2 cells [2]: 7.2 pEC50
pEC50 of cAMP accumulation to AM alone, antagonist experiment, PB1 cells [2]: 7.2 pEC50
pEC50 of cAMP accumulation to AM alone, antagonist experiment, WK1 cells [2]: 6.9 pEC50
pEC50 of cAMP accumulation to AM with 1 μM AM(22–52), JK2 cells [2]: 7.3 pEC50
pEC50 of cAMP accumulation to AM with 1 μM AM(22–52), PB1 cells [2]: 7.1 pEC50
pEC50 of cAMP accumulation to AM with 1 μM AM(22–52), WK1 cells [2]: 6.7 pEC50
B1: adrenomedullin (peptide)
peptide: YRQSMNNFQGLRSFGCRFGTCTVQKLAHQIYQFTDKDKDNVAPRSKISPQGY

pEC50 of cAMP accumulation (30 min) in SB2b cells [6]: 6.8 pEC50
pEC50 of cAMP accumulation (30 min) in JK2 cells [7]: 5.9 pEC50
pEC50 of cAMP accumulation (30 min) in PB1 cells [7]: 6.1 pEC50
B2: amylin (rAmy) (peptide)
peptide: KCNTATCATQRLANFLVRSSNNLGPVLPPTNVGSNTY
